In patent US20060142192A1 (ZymoGenetics, published 2006):

Experiments:
Assay in all cases: flow cytometry, biotinylated IL-17C (1 ug/ml) + SA-PE on transiently transfected 293fb cells
human ZcytoR21x1 = target: T1, human ZcytoR21x1 (human, UniProt Q8NFR9 24-667)
T1 construct: also called hcytor21x1; IL-17RE
T1 sequence: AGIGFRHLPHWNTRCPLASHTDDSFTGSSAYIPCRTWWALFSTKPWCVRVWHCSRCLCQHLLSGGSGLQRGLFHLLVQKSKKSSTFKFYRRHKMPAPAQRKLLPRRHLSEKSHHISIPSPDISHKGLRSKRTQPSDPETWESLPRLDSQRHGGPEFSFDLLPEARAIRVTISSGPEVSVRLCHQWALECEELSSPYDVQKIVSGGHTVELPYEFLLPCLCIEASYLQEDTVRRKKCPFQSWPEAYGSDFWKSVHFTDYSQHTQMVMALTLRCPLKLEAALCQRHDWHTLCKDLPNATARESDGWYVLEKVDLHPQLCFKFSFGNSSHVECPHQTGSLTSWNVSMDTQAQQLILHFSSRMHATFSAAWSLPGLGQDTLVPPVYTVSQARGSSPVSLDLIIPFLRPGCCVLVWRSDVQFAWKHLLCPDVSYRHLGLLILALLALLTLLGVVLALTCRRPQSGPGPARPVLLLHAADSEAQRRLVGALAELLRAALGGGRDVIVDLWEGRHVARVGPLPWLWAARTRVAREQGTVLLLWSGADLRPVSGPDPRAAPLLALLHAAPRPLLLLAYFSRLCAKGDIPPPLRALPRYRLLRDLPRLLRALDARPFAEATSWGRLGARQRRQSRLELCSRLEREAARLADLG
Procedure: (§1) 293fb cells that had been transfected with expression vectors encoding human ZcytoR21x1 and ZcytoR21x2 were assessed for their ability to bind biotinylated human IL-17C. Control transfections included 1) no DNA transfection, 2) vector only (pzmp11), and 3) human IL17R. 10⁶ cells were removed from transfected suspension cultures at day 1, day 2, day 3, and day 5. Cells were pelleted and resuspended in 100 ul of staining media (SM), which is HBSS plus 1 mg/ml bovine serum albumin (BSA), 10 mM Hepes, and 0.1% sodium azide (w/v). Biotinylated human IL-17C was incubated with the cells on ice for 45 minutes at a concentration of 1 ug/ml. An APC conjugated anti-human CD8 antibody (BD Pharmingen; cat.#555369) was also added at 1:25 dilution. After 30 minutes, excess cytokine and antibody was washed away with SM and the cells were incubated with a 1:100 dilution of streptavidin conjugated to phycoerythrin (SA-PE; BD Pharmingen; cat# 554061) for 30 minutes on ice. Excess SA-PE was washed away and cells were analyzed by flow cytometry.
(§2) The amount of cytokine binding was detected from the change in the mean fluorescence intensity of the cytokine staining relative to negative controls —1) no DNA transfection and 2) vector only. […] Binding was also seen to human IL-17R.

human IL-17R = target: T2, human IL-17R (human, UniProt Q96F46 33-866)
T2 construct: whole, on cells
T2 sequence (looked up): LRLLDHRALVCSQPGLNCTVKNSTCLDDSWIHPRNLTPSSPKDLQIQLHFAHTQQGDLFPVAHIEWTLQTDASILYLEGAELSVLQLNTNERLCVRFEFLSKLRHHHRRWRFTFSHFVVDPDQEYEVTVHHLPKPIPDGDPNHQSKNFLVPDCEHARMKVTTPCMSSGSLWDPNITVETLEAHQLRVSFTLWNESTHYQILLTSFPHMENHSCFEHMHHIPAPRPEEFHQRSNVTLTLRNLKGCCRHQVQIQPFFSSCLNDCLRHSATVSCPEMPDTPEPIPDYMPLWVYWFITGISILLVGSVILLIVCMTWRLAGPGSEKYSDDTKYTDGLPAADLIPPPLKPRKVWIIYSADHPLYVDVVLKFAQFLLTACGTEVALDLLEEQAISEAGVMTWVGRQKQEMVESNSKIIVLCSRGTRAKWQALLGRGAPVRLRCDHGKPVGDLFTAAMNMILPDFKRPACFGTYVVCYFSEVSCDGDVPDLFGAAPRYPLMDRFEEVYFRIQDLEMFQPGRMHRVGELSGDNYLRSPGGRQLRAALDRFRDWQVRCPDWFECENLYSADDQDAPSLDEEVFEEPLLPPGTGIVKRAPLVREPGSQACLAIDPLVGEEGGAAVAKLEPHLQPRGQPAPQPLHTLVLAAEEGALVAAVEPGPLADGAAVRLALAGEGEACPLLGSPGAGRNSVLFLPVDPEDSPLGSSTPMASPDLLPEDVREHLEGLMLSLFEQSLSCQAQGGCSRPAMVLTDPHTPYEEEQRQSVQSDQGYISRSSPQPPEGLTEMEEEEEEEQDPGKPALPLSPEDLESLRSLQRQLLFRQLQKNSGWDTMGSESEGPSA
Procedure: as §1, §2

human ZcytoR21x2 = target: T3, human ZcytoR21x2 (human, UniProt Q8NFR9 24-667)
T3 construct: also called hcytor21x2
T3 sequence: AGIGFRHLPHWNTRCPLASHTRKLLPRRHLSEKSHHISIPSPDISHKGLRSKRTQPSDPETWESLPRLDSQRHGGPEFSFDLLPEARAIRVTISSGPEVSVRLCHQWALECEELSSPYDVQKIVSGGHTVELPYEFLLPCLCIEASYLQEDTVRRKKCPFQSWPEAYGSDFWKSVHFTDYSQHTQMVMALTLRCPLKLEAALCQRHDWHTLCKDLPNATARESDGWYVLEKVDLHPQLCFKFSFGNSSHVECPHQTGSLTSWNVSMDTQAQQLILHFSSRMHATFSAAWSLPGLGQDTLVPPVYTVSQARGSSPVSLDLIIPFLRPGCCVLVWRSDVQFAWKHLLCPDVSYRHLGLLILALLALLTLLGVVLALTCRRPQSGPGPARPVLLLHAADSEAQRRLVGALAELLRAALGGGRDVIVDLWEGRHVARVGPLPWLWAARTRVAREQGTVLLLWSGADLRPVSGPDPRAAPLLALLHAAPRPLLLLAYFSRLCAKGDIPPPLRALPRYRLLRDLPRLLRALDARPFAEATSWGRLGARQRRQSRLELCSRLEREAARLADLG
Procedure: as §1, §2

Measured: binding result

B1: human IL-17C (ligand)
chain: HHDPSLRGHPHSHGTPHCYSAEELPLGQAPPHLLARGAKWGQALPVALVSSLEAASHRGRHERPSATTQCPVLRPEEVLEADTHQRSISPWRYRVDTDEDRYPQKLAFAECLCRGCIDARTGRETAALNSVRLLQSLLVLRRRPCSRDGSGLPTPGAFAFHTEFIHVPVGCTCVLPRSV
modifications: biotin label in the binding assays (sites not given); unlabelled in the signalling assays
notes: it is the last residue of the open reading frame as I know it; Recombinant forms made carried a C-terminal Glu-Glu tag (BHK) or His tag (293F); also called biotinylated human IL-17C; human IL-17C (A903G)
binds: all assays above
